Data set [1] deals with the molecule itself. Description: gel filtration chromatography (self-association).
Data set [2] concerns the molecule itself. Description: gel filtration and EM; self-association. On the technique in general: SEC sorts molecules by how far they enter the pores of the column.
Data set [3] concerns the molecule itself. Description: gel filtration; self-association.
Data set [4] concerns the molecule itself. Description: gel filtration; self-association. This is another data set of the same source.
Data set [5] deals with the molecule itself. Description: form of the immunogen as described; self-association.

B1: Rotavirus VP8* (other)
chain: LDGPYQPTTFTPPTDYWILINSNTNGVVYESTNNSDFWTAVIAVEPHVNPVDRQYNVFGENKQFNVRNDSDKWKFLEMFRGSSQNDFYNRRTLTSDTRLVGILKYGGRIWTFHGETPRATTDSSNTANLNGISITIHSEFYIIPRSQESKCNEYINNGL
notes: ~18 kDa monomer; also called free VP8* monomer
Turning to B1, the binding result in data set [1] is listed as “no binding”.

B2: NoV P domain-RGDCFC (NoV P^+) of Norovirus VA387 (GII.4) (other)
chain: SRTKPFTVPILTVEEMSNSRFPIPLEKLYTGPSSAFVVQPQNGRCTTDGVLLGTTQLSAVNICTFRGDVTHIAGSHDYIMNLASQNWNNYDPTEEIPAPLGTPDFVGKIQGMLTQTTREDGSTRAHKATVSTGSVHFTPKLGSVQYTTDTNNDLQTGQNTKFTPVGVIQDGNNHQNEPQQWVLPNYSGRTGHNVHLAPAVAPTFPGEQLLFFRSTMPGCSGYPNMNLDCLLPQEWVQHFYQEAAPAQSDVALLRFVNPDTGRVLFECKLHKSGYVTVAHTGPHDLVIPPNGYFRFDSWVNQFYTLAPMGNGAGRRRALCDCRGDCFC
notes: Mainly the 24mer P particle (~830 kDa), with a low portion (~5%) of P dimer; also called P-RGDCFC
Consider B2, for which the binding result in data set [2] is “binds”.

B3: NoV P polypeptide (NoV P^-) of Norovirus VA387 (GII.4) (other)
chain: SRTKPFTVPILTVEEMSNSRFPIPLEKLYTGPSSAFVVQPQNGRCTTDGVLLGTTQLSAVNICTFRGDVTHIAGSHDYIMNLASQNWNNYDPTEEIPAPLGTPDFVGKIQGMLTQTTREDGSTRAHKATVSTGSVHFTPKLGSVQYTTDTNNDLQTGQNTKFTPVGVIQDGNNHQNEPQQWVLPNYSGRTGHNVHLAPAVAPTFPGEQLLFFRSTMPGCSGYPNMNLDCLLPQEWVQHFYQEAAPAQSDVALLRFVNPDTGRVLFECKLHKSGYVTVAHTGPHDLVIPPNGYFRFDSWVNQFYTLAPMGNGAGR
notes: ~34.5 kDa monomer, ~69 kDa dimer; also called free NoV P^- dimer
For the protein B3, in data set [3], the binding result is recorded as “binds”.

B4: NoV P^- (387)-NoV P^- (207) fusion protein (other)
chain: SRTKPFTVPILTVEEMSNSRFPIPLEKLYTGPSSAFVVQPQNGRCTTDGVLLGTTQLSAVNICTFRGDVTHIAGSHDYIMNLASQNWNNYDPTEEIPAPLGTPDFVGKIQGMLTQTTREDGSTRAHKATVSTGSVHFTPKLGSVQYTTDTNNDLQTGQNTKFTPVGVIQDGNNHQNEPQQWVLPNYSGRTGHNVHLAPAVAPTFPGEQLLFFRSTMPGCSGYPNMNLDCLLPQEWVQHFYQEAAPAQSDVALLRFVNPDTGRVLFECKLHKSGYVTVAHTGPHDLVIPPNGYFRFDSWVNQFYTLAPMGNGAGRGGGGGGGGGGGGSKTKAFTIPVLKISEMTNSRFPVPVDQMYTSRSEGIVVQPQNGRATIDGELLGTTLVSPVSVCNFKGNLQAEVPGQHQLYQLQLTNLDGSPIDPTDDTPGPLGCPDFTGLLYGVASQRGPGDATRAHEARIDTGSDTFAPKIGQVRFYSTSSDFETNQPTHFTPIGIYIEGNSSDFNQWQLPRYGGHLANNNHLAPAVSPLFPGEQILFFRSFIPGASGHTNGEMDCLLPQEFVQHFYQEAATARSEVALLRFVNPDTGRALFESKLHKQGFMTIASSGDHPIIMPTNGYFRFEAWVNQFYSLAPVGTGSGR
notes: also called NoV P^-(GII.4)-NoV P^-(GII.9)
Regarding B4, the binding result in data set [2] is on record as “binds”.

B5: NoV P^--VP8* (C-end) protein (other)
chain: SRTKPFTVPILTVEEMSNSRFPIPLEKLYTGPSSAFVVQPQNGRCTTDGVLLGTTQLSAVNICTFRGDVTHIAGSHDYIMNLASQNWNNYDPTEEIPAPLGTPDFVGKIQGMLTQTTREDGSTRAHKATVSTGSVHFTPKLGSVQYTTDTNNDLQTGQNTKFTPVGVIQDGNNHQNEPQQWVLPNYSGRTGHNVHLAPAVAPTFPGEQLLFFRSTMPGCSGYPNMNLDCLLPQEWVQHFYQEAAPAQSDVALLRFVNPDTGRVLFECKLHKSGYVTVAHTGPHDLVIPPNGYFRFDSWVNQFYTLAPMGNGAGRGGGGGGGGGGGGLDGPYQPTTFTPPTDYWILINSNTNGVVYESTNNSDFWTAVIAVEPHVNPVDRQYNVFGENKQFNVRNDSDKWKFLEMFRGSSQNDFYNRRTLTSDTRLVGILKYGGRIWTFHGETPRATTDSSNTANLNGISITIHSEFYIIPRSQESKCNEYINNGL
notes: Thrombin-cleaved product; ~52 kDa monomer, ~100 kDa dimer; also called free NoV P^--VP8* dimer
For B5, the binding result in data set [4] is “binds”.

B6: NoV P^- (387)-NoV P^- (115) fusion protein (other)
chain: SRTKPFTVPILTVEEMSNSRFPIPLEKLYTGPSSAFVVQPQNGRCTTDGVLLGTTQLSAVNICTFRGDVTHIAGSHDYIMNLASQNWNNYDPTEEIPAPLGTPDFVGKIQGMLTQTTREDGSTRAHKATVSTGSVHFTPKLGSVQYTTDTNNDLQTGQNTKFTPVGVIQDGNNHQNEPQQWVLPNYSGRTGHNVHLAPAVAPTFPGEQLLFFRSTMPGCSGYPNMNLDCLLPQEWVQHFYQEAAPAQSDVALLRFVNPDTGRVLFECKLHKSGYVTVAHTGPHDLVIPPNGYFRFDSWVNQFYTLAPMGNGAGRGGGGGGGGGGGGQKTKPFSVPNLPLNTLSNSRVPSLIRSMMVSRDHGQMVQFQNGRVTLDGQLQGTTPTSASQLCKIRGSVFHANGGNGYTLTELDGSPYHAFESPAPIGFPDLGECDWHMEASPTTQFDTGDVIKQINVKQEAAFAPHLGTIQADGLSDVSVNTNMIAKLGWVSPASDGHRGNVDPWVIPRYGSTLTEAAQLAPPIYPPGFGEAIVFFMSDFPIAHGANGLSVPCTIPQEFVTHFVNEQAPTRGEAALLHYLDPDTHRNLGEFKLYPEGFMTCVPNSSGTGPQTLPINGVFVFVSWVSRFYQLKPVGTAGPARSLGI
For the protein B6, the binding result in data set [5] was “binds”.

B7: HEV P domain (protruding domain of hepatitis E virus) (other)
chain: TPSPAPSRPFSVLRANDVLWLSLTAAEYDQTTYGSSTNPMYVSDTVTFVNVATGAQAVARSLDWSKVTLDGRPLTTIQQYSKTFYVLPLRGKLSFWEASTTKAGYPYNYNTTASDQILIENAAGHRVAISTYTTSLGAGPTSISAVGVLAPHSALAALEDTVDYPCDCRGDCFC
notes: released from GST-HEV P by thrombin; ~19 kDa monomer, ~38 kDa dimer
As for B7, the binding result in data set [3] is listed as “binds”.

For the origin of these results see US20140017269A1 (CHILDREN S HOSPITAL MEDICAL CENTER, published 2014).
